In paper PMC10853763 one finds Kd data, which are given here for three substances.

Usually Kd stands for the free concentration of one partner at which half of the binding sites on the other are occupied at equilibrium, for simple one-to-one binding.

The test system of the data set is TifA RB69 (phage RB69). The experiment in a line: fluorescence polarization. Particulars: FP: 50 mM Tris-HCl pH 7.5, 150 mM NaCl, 1 mM DTT, 5% glycerol, 0.1 mg/ml BSA, 5 nM nucleic acid, 30 min at 37 C, SEC: 20 mM Tris-HCl pH 8.5, 50 mM NaCl.
Substance artJ RNA 15 nt gave an equilibrium dissociation constant (Kd) of 2300 nM.

artJ RNA 30 nt came in with a Kd of 850 nM.

Turning to artJ RNA 45 nt, the dissociation constant Kd was 360 nM.
